Source: patent US20240239894A1, “THERAPEUTIC BINDING MOLECULES” (MedImmune Limited, priority 2020, published 2024)

Assays:
SK-BR-3 cells = test: Flow cytometry binding; assay type: cell-based, human; settings: 31, 156 and 78 ng/ml; compared with 1D11
Protocol: (§1) Cells were detached from tissue culture flasks by accutase (Gibco, Paisley, UK), pelleted by centrifugation, and resuspended in ice cold DPBS (Gibco, Paisley, UK). Viable cells were counted by trypan blue exclusion using a haemocytometer. Cell densities were adjusted to 5×10^6 cells/mL in DPBS. 100 μL of the cell suspension (5×10^5 cells) was added to 96-well V-bottomed plates and placed on ice. Then, the cells were incubated with Live/Dead fixable violet stain (ThermoFisher Scientific, Loughborough, UK) for 20 minutes on ice. Following a wash with flow cytometry buffer (eBiosciences, Hatfield, UK), the cells were incubated on ice for 30 minutes in 100 μL flow cytometry buffer alone (unstained control cells) or supplemented with AF647-labelled anti-B7H4 antibodies (e.g. E02-GL or 1D11) or isotype R347 at a concentration ranging from 10 µg/ml to 78 ng/ml. […] FlowJo cytometry analysis software (Treestar, Ashland, OR, USA) was used to quantify antibody binding to cells as follows. Live, single cells were gated based on forwards scatter, side scatter, and Live/Dead violet fluorescence intensity and the AF647 geometric mean fluorescence intensity (MFI) was determined. […]

[1] = system: hB7-H4 expressing HT29 cells; test: Flow cytometry binding; assay type: cell-based, human; settings: 31, 156 and 78 ng/ml; compared with 1D11
Protocol: as §1

HT29 hB7H4 clone 4 = test: E02-GL MESF on cell line; assay type: cell-based, human
HT29 hB7H4 clone 44 = test: E02-GL MESF on cell line; assay type: cell-based, human
HT29 hB7H4 clone 26 = test: E02-GL MESF on cell line; assay type: cell-based, human
SKBR3 = test: E02-GL MESF on cell line; assay type: cell-based, human
HCC1569 = test: E02-GL MESF on cell line; assay type: cell-based
MDA-MB-468 = test: E02-GL MESF on cell line; assay type: cell-based, human
Protocol: A number of cancer cell lines were treated with clone E02-GL-SG3249 (e.g. conjugated to a cytotoxin), as outlined in Table 15.

OVCAR4 = test: E02-GL MESF on cell line; assay type: cell-based, human
[2] = system: B7-H4 expressing versus WT HT29, CT26 and 4T1 tumours; test: In vivo imaging of 800CW labelled antibody; parameters: species or system mice; settings: 800CW label; HT29 days 3, 7, 14; CT26 days 3 and 7; 4T1 day 7
Source text: Antibody clones (e.g. E02_GL) were labelled with 800CW (LI-COR Biosciences). 800 CW labelled R347 was used in control experiments.
B7-H4 expressing CT26/4TI/HT29 cancer cells were grafted (e.g. inoculated subcutaneously) to the left flank […] nude mice (Charles River Laboratories, Wilmington, MA), and non-B7-H4 expressing CT26/4TI/HT29 cancer cells were grafted to the right flank to provide an internal control. Mice were kept for a week to develop tumours, 800CW-labelled E02_GL was injected. 800CW-labelled R347 was injected into control mice. […]
In vivo imaging studies were performed as outlined under Materials and Methods (above), namely with 800CW labelled antibody (E02_GL). “E02-GL” antibody has the CDR/VH sequences (e.g. corresponds to) of ZY0EQD-E02 (“GL” means the antibody has been germlined).

[3] = system: SKBR3 cell line (target cell); test: ADCC with primary human NK cells; assay type: cell-based; settings: 1 μg/mL; NK cells from healthy donors
Source text: When IgG antibodies bind cell surface antigens via their Fab domains, the Fc portion of the antibodies can engage with FcγRIIIa on natural killer cells. The interaction of the Fc domain with FcγRIIIa induces cross-linking of the FcγRs, which triggers the release of cytotoxic granules containing perforin and granzymes, leading to the death of the target cell, a process called antibody-dependent cellular cytotoxicity (ADCC). The potential of antibody E02-INT and E02-GL-SG3932 to initiate ADCC activity was evaluated utilizing isolated primary human NK cells and the human breast cancer SKBR3 cell line as the target cell.
Next, human breast cancer SK-BR-3 cells were co-cultured with NK cells isolated from six healthy donors in the presence of 1 μg/mL E02-GL-SG3932, antibody intermediate E02-INT, isotype-matched control antibody NIP228, and the isotype-matched control ADC NIP228-SG3932 (FIG. 37). ADCC activity was evaluated by Incycte® Annexin V Dye binding of extracellular surface exposure of phosphatidyl serine on apoptotic cells, yielding a bright and stable red fluorescent signal. The fold-change was based on maximum cell death of non-drug treated NK/SK-BR-3 co-cultured cells. Maximum cell death was calculated by dividing the average red objects in experimental wells by the average maximum cell death in Staurosporine treated SK-BR-3 cells.

HT29-huB7-H4 Clone 26 = test: Live cell imaging internalization; assay type: cell-based, human; settings: 5 μg/mL Alexa Fluor 568 conjugate
Protocol: (§2) The internalization and intracellular trafficking properties of antibody E02-INT was evaluated using a quantitative live cell imaging assay in MX-1 human breast cancer cells and HT29 huB7-H4 Clone 26 human colon cancer cells overexpressing B7-H4.

MX-1 = test: Live cell imaging internalization; assay type: cell-based, human; settings: 5 μg/mL Alexa Fluor 568 conjugate
Protocol: as §2

B1: E02-GL: germlined ZY0EQD-E02, VH SEQ ID NO: 45, VL SEQ ID NO: 34; antibody intermediate of E02-GL-SG3932 (antibody, V domains shown)
VH: QVQLQQWGAGLLKPSETLSLACTVYGGSFSGYYWNWIRQPPGKGLEWIGEINHSGSTSYNPSLKSRVTISVDTSKNQFSLKLSSVTAADTAVYYCARVLYNWNVDSWGQGTLVTVSS
VL: DIQMTQSPSSLSASVGDRVTITCRASQDIRNDVGWYQQKPGKAPKRLIYAASRLQSGVPSRFSGSGSGTEFTLTISSLQPEDFATYYCLQHNSYPRTFGQGTKVEIK
Question: Which results are given for B1?
Answer: binding to B7-H4 expressed on cancer cells (SK-BR-3 cells): superior binding; binding to B7-H4 expressed on cancer cells [1]: superior binding; E02-GL MESF (HT29 hB7H4 clone 4): 71,928 MESF; E02-GL MESF (HT29 hB7H4 clone 44): 147,125 MESF; E02-GL MESF (HT29 hB7H4 clone 26): 429,398 MESF; E02-GL MESF (SKBR3): 78,343 MESF; E02-GL MESF (HCC1569): 112,608 MESF; E02-GL MESF (MDA-MB-468): 92,157 MESF; E02-GL MESF (OVCAR4): 261,997 MESF; localization to the B7-H4 expressing tumour compared to the WT tumour [2]: Preferential localization; ADCC activity beyond untreated co-cultured cells [3]: significant increase in ADCC activity; internalization half-life (HT29-huB7-H4 Clone 26): 127 (±35 SD) minutes; internalization half-life (MX-1): 102 (±18 SD) minutes
